# Experimental data reported in a protein production outcome set (Wang et al. 2014).
# Experiment: label from the status in PepcDB records
row,Sequence,protein production
1,MGNKKEIAIVALTTGFVLTSVTPYGVGHAEETGQMQVEIQEDSFRTGDLTQPSKKAPENVVKDALKENTEHALSPKQVSAETGVDYKVLQKRGSYDGTTLVRMQQIYEGKEVYGHQLTAHVDKKGIIKSISGASAQNLTQEDLKKPINLSKEEAKQYIYKKYGNDTKFISEPEVKAVIFVDENHGQASNAYQVTFAATTPNYVSGTYLVNAHNGEMLKDMVQESSLKISEEYVESVKENKTSNFTSLTGTGKDDLGVTRTFGISKQTSGNYALADYTRGQGIETYDVNYRDITNEESYYPGILATSVSTTFNDPKAVSAHFLATKVYDFYKEKYKRNSFDNKGKKVVSVVHAWDSGGTNDPENWENAFSTNINNISMLLYGDPMVKAFDIAGHEFTHAVTSSESNLEFSGESGAINEALSDIMGTAIEKYINNGEFNWTIGEQTGSTFRNMKNPTAINFSEGLPYPDDYSKYNDLNGEDYGGVHFNSSIINKVAYLMAQGGTHNGVNVNGIGEDRMFDIFYYANTDELNMTSNFSELKLACLKVATNKYGANSIEVQAVQNAFDAAKITGTVKENEKTAENQAPELTVPFTITLRVGDTFDPMRNVKAVDKEDGDLTNKVKHKGDVDTSKPGTYIVEYMVVDSQGRNATATQTVIVEGNGETSDLEPKLTVPVGATIHVGDSFVPMAEVLAIDKEDGDLTSKIKVDGEVDTTKAGTYVLTYTVTDSKGHEVTAKQTVTVKVREEVKNDKPILKVPATTSITEGDQFDPLVGVSATDKEDGDLISKVAYEGTIDTTKAGTYEIIYSVRDSVGNEVNAIQKVLVKDKETSKANGLANKENKSNISNNSNSDKKEYTYKELPKTGVSTTNSAAIGILIIIVGTVLTLVRKFRKIQK,failed
2,MGNQLAIQMNSDEDDDFDSSDNELGFNVINFTVNAMDLRSDYCSSEMPVIRGKPDLVKFQKTDMYKEIQASSGLVSNPNNRWNLVHALQQRENGLASPHSASFSKNQQRYISNLYIPNKKATRLMSLESKIFVTKFNRSGSKLLTACQDGFVRIYDGAKGTYHLLNRIRARDVEWSIIDADFSPNGEHFAYSTWSRSLFIMPVNGGEDDCQWIDVNGLPSHRLAIFSLRYSPTGDKIIGGSNNSTVIVTDIRTRNTQILRTHRMPGKDVNSVCFLHDKDPNVIIAGCDDGLLKVYDLRTTFRSRDLSKSVASFIGHYDGITYIDSRNDGYHVLSNSKDQSIKIWDIRQPSNMRNRSRSRQQVDPTTWDYRWNRVPREFYNPHKPLEGDSSIMTYRGHRVTKTLLRAKFSPMEQTGQRYIYTGCATGRIIIYDVLTGKIQEAIEGHRTVIRDLDWHPDRSEIVSGSWDTHVHLNNFSRSNANRPVKRSHSSDHDKKPLRRSRRLANRNVTPD,failed
3,MGNVGLLFVGAVLFMNGLLLLGKVDAKAAAVFNLFIGALQVLTPTYLIFTANGDPMKILAASGIYLFGFTYLYVGIGLLTGLDSTGVGYYSLFVAVAALGYSFVNFRLFKDYPFGVIWLYWAYLWFLFFLLLGLKKDDLKIYTGWVTAIEGWVTGAIPAGLLLSGYWKHPTETAIALAVFGVVVFVGLWPRTHRTPRPTSAAPRTGGVGAPT,failed
4,MGPRRLLLVAACFSLCGPLLSARTRARRPESKATNATLDPRSFLLRNPNDKYEPFWEDEEKNESGLTEYRLVSINKSSPLQKQLPAFISEDASGYLTSSWLTLFVPSVYTGVFVVSLPLNIMAIVVFILKMKVKKPAVVYMLHLATADVLFVSVLPFKISYYFSGSDWQFGSELCRFVTAAFYCNMYASILLMTVISIDRFLAVVYPMQSLSWRTLGRASFTCLAIWALAIAGVVPLLLKEQTIQVPGLNITTCHDVLNETLLEGYYAYYFSAFSAVFFFVPLIISTVCYVSIIRCLSSSAVANRSKKSRALFLSAAVFCIFIICFGPTNVLLIAHYSFLSHTSTTEAAYFAYLLCVCVSSISCCIDPLIYYYASSECQRYVYSILCCKESSDPSSYNSSGQLMASKMDTCSSNLNNSIYKKLLT,failed
5,MGQFSILGFIALGGAIGACSRYLVSEFCVLLFGRGFPYGTLTVNVVGSFIMGLLIAAFENEILATEPWRQVIGLGFLGALTTFSTFSMDNVLLMQQGAFFKMGLNILLNVVLSISAAWIGFQLLMRS,failed
